Results: US20040248211A1, “ICAM-related protein” (priority 1992, published 2004)

Legend:
[1] = system: JY cells (LFA-1) binding to ICAM-R/IgG; experiment: JY cell binding to plate-bound ICAM-R/IgG chimeras; format: cell-based, human; details: chimera coated at 10 μg/ml
Method: The binding of the lymphoblastoid cell line JY, which expresses LFA-1, to wild type ICAM-R/IgG chimera was examined in the presence and absence of LFA-1 specific antibodies or antibodies specific for either domain 1 or 2 of ICAM-R. ICAM-R chimeras were diluted to 10 μg/ml in 0.1M Na-carbonate/bicarbonate buffer pH 9.6 and used to coat triplicate wells (50 μl/well) of an Immulon 4 96-well plate (Dynatech) overnight at 4° C. Wells were washed three times in PBS and blocked with 1% BSA (in PBS) for 1 hour at 37° C. JY cells were labeled with the fluorescent dye Calcein (Moleculat Probes, Eugene, Oreg.) at 8 μg/ml at 37° C. in serum free RPMI for 20 minutes. Cells were washed with RPMI and resuspended in binding buffer (0.2% HSA in RPMI. Approximately 1×10^5 cells were added to each well containing the binding buffer with or without antibody (20 μg/ml of ICR-2.1, ICR-1.1, ICR-3.1, ICR-5.1, ICR-7.1, ICR-8.1, ICR-4.2, ICR-6.2, ICR-9.2, TS1/22 or 60.3) so that the final volume was 0.35 ml. Plates were incubated at 37° C. in the dark for 45 minutes and input fluorescence was quantitated with a fluorescence reader (Millipore) in a 96-well format. Unbound cells were removed by inverting the plate in 0.1% BSA in PBS for 20 minutes. Bound cells were quantitated by measuring the remaining fluorescence and presented as percent input minus background binding to wells coated with BSA alone.

[2] = system: Neutrophil binding to ICAM-R E37/A; experiment: Neutrophil adhesion; format: cell-based, human
Method: Binding of HL-60 cells, neutrophils, and COS cells expressing. CD11b to the chimeric proteins was assayed as follows. The chimeric fusion proteins were diluted to 20 μg/ml in 0.1 M Na-carbonate/bicarbonate buffer (pH 9.6) and 50 μl was used to coat each well (in triplicate) of an Immulon 4 96-well plate (Dynatech). The plates were incubated overnight at 4° C. and washed three times in PBS. Wells were blocked with 1% human serum albumin (HSA) for one hour at 37° C. and washed three times in PBS. Two hundred μl of RPMI+0.25% HSA (with/without phorbol ester at 10 ng/ml, with/without blocking mAb at 15 μg/ml) was added to each well. ICAM-R antibodies used were ICR-1.1, ICR-8.1, ICR-4.2, ICR-6.2, ICR-9.2, and ICR-19.3. […] The adherent cells were quantified by staining with crystal violet (1% solution in 10% ethanol), washing with water and eluting the dye with 66% ethanol in water and measuring the absorbance at 570 nm. In each experiment percent cells bound was calculated using the absorbency values obtained from the CD18 mAb coated well as 100%. […]
This motif in domain 1 of ICAM-1 is essential for CD11a but not CD11b binding. Consequently, the effect of the alanine substitution at ICAM-R E37 (E37/A) on CD11b binding was evaluated.

B1: ICAM-R E37/A: ICAM-R/IgG chimera with alanine substitution at E37 (protein)
chain: QEFLLRVEPQNPVLSAGGSLFVNCSTDCPSSEKIALATSLSKELVASGMGWAAFNLSNVTGNSRILCSVYCNGSQITGSSNITVYGLPERVELAPLPPWQPVGQNFTLRCQVEGGSPRTSLTVVLLRWEEELSRQPAVEEPAEVTATVLASRDDHGAPFSCRTELDMQPQGLGLFVNTSAPRQLRTFVLPVTPPRLVAPRFLEVETSWPVDCTLDGLFPASEAQVYLALGDQMLNATVMNHGDTLTATATATARADQEGAREIVCNVTLGGERREARENLTVFSFLGPIVNLSEPTAHEGSTVTVSCMAGARVQVTLDGVPAAAPGQTAQLQLNATESDDGRSFFCSATLEVDGEFLHRNSSVQLRVLYGPKIDRATCPQHLKWKDKTRHVLQCQARGNPYPELRCLKEGSSREVPVGIPFFVNVTHNGTYQCQASSSRGKYTLVVVMDIEAFSSH
modifications: left off: a dimerising Fc or GST
B1 was tested, and the “LFA-1 mediated JY cell adhesion to variant ICAM-R/IgG chimera” value [1] was “completely abrogated adhesion of JY cells” and the “neutrophil binding relative to wild type ICAM-R” value [2] was “binding was reduced relative to wild type ICAM-R”.
